Like-named read-outs stand apart in the source and are kept apart here.
Assays:
[1] = target: human ErbB4 receptor (NCBI Ref. Seq. No. NP_001036064.1) (human, UniProt Q15303 26-1308); test: cell-based or functional assay
[2] = target: T1, Cynomolgus monkey serum albumin (cynomolgus monkey, UniProt A2V9Z4 25-608); test: SPR, SA on chip, 1:1 fit, 25 C
T1 construct: bought; immobilised on a CM5 chip by amine coupling; also called Cyno SA

Cow serum albumin [3] = target: T2, Cow serum albumin (cow, UniProt P02769 25-607); test: SPR, SA on chip, 1:1 fit, 25 C
T2 construct: bought; immobilised on a CM5 chip by amine coupling; also called Cow SA

Mouse serum albumin [4] = target: T3, Mouse serum albumin (mouse, UniProt P07724 25-608); test: SPR, SA on chip, 1:1 fit, 25 C
T3 construct: bought; immobilised on a CM5 chip by amine coupling; also called Mouse SA

Pig serum albumin [5] = target: T4, Pig serum albumin (pig, UniProt P08835 25-607); test: SPR, SA on chip, 1:1 fit, 25 C
T4 construct: bought; immobilised on a CM5 chip by amine coupling; also called Pig SA

Human serum albumin [6] = target: T5, Human serum albumin (human, UniProt P02768 25-609); test: SPR, SA on chip, 1:1 fit, 25 C
T5 construct: bought; immobilised on a CM5 chip by amine coupling; also called Human SA

Dog serum albumin [7] = target: T6, Dog serum albumin (dog, UniProt P49822 25-608); test: SPR, SA on chip, 1:1 fit, 25 C
T6 construct: bought; immobilised on a CM5 chip by amine coupling; also called Dog SA

Rat serum albumin [8] = target: T7, Rat serum albumin (rat, UniProt P02770 25-608); test: SPR, SA on chip, 1:1 fit, 25 C
T7 construct: bought; immobilised on a CM5 chip by amine coupling; also called Rat SA

Rabbit serum albumin [9] = target: T8, Rabbit serum albumin (rabbit, UniProt P49065 25-608); test: SPR, SA on chip, 25 C
T8 construct: bought; immobilised on a CM5 chip by amine coupling; also called Rabbit SA

Rabbit serum albumin [10] = target: T8, Rabbit serum albumin; test: SPR, SA on chip, 25 C; remark: listed apart in the source
[11] = target: T1, Cynomolgus monkey serum albumin; test: SPR, SA on chip, 1:1 fit, 25 C; remark: listed apart in the source
Cow serum albumin [12] = target: T2, Cow serum albumin; test: SPR, SA on chip, 1:1 fit, 25 C; remark: listed apart in the source
Mouse serum albumin [13] = target: T3, Mouse serum albumin; test: SPR, SA on chip, 1:1 fit, 25 C; remark: listed apart in the source
Pig serum albumin [14] = target: T4, Pig serum albumin; test: SPR, SA on chip, 1:1 fit, 25 C; remark: listed apart in the source
Human serum albumin [15] = target: T5, Human serum albumin; test: SPR, SA on chip, 1:1 fit, 25 C; remark: listed apart in the source
Dog serum albumin [16] = target: T6, Dog serum albumin; test: SPR, SA on chip, 1:1 fit, 25 C; remark: listed apart in the source
Rat serum albumin [17] = target: T7, Rat serum albumin; test: SPR, SA on chip, 1:1 fit, 25 C; remark: listed apart in the source
[18] = target: IL-2 receptor-dimer pair of the PathHunter IL-2 BioAssay cells; test: cell-based or functional assay
[19] = target: human GFRAL and human RET on HEK293 cells (human, UniProt Q6UXV0 19-394; P07949 29-1114); test: cell-based or functional assay
Cow serum albumin [20] = target: T2, Cow serum albumin; test: SPR, SA on chip, 25 C; ka and kd printed as *not applicable
[21] = target: T1, Cynomolgus monkey serum albumin; test: SPR, SA on chip, 1:1 fit, 25 C; remark: listed apart in the source
Mouse serum albumin [22] = target: T3, Mouse serum albumin; test: SPR, SA on chip, 1:1 fit, 25 C; remark: listed apart in the source
Pig serum albumin [23] = target: T4, Pig serum albumin; test: SPR, SA on chip, 1:1 fit, 25 C; remark: listed apart in the source
Human serum albumin [24] = target: T5, Human serum albumin; test: SPR, SA on chip, 1:1 fit, 25 C; remark: listed apart in the source
Dog serum albumin [25] = target: T6, Dog serum albumin; test: SPR, SA on chip, 1:1 fit, 25 C; remark: listed apart in the source
Rat serum albumin [26] = target: T7, Rat serum albumin; test: SPR, SA on chip, 1:1 fit, 25 C; remark: listed apart in the source
Rabbit serum albumin [27] = target: T8, Rabbit serum albumin; test: SPR, SA on chip, 25 C; remark: listed apart in the source
Rabbit serum albumin [28] = target: T8, Rabbit serum albumin; test: SPR, SA on chip, 25 C; remark: listed apart in the source
[29] = target: T1, Cynomolgus monkey serum albumin; test: SPR, SA on chip, 1:1 fit, 25 C; remark: listed apart in the source
Cow serum albumin [30] = target: T2, Cow serum albumin; test: SPR, SA on chip, 1:1 fit, 25 C; remark: listed apart in the source
Mouse serum albumin [31] = target: T3, Mouse serum albumin; test: SPR, SA on chip, 1:1 fit, 25 C; remark: listed apart in the source
Pig serum albumin [32] = target: T4, Pig serum albumin; test: SPR, SA on chip, 1:1 fit, 25 C; remark: listed apart in the source
Human serum albumin [33] = target: T5, Human serum albumin; test: SPR, SA on chip, 1:1 fit, 25 C; remark: listed apart in the source
Dog serum albumin [34] = target: T6, Dog serum albumin; test: SPR, SA on chip, 1:1 fit, 25 C; remark: listed apart in the source
Rat serum albumin [35] = target: T7, Rat serum albumin; test: SPR, SA on chip, 1:1 fit, 25 C; remark: listed apart in the source

B1: VHH-based fusion of Example 4, VHH fusion 4 (MC6.1C22-(G4Q)5-NRG1) (other)
chain: EVQLLESGGGLVQPGGSLRLSCAASGRYIDETAVAWFRQAPGKEREFVAGIGGGVDITYYADSVKGRFTISRDNSKNTLYLQMNSLRPEDTAVYYCAARPGRPLITSKVADLYPYWGQGTLVTVSSGGGGQGGGGQGGGGQGGGGQGGGGQSHLVKCAEKEKTFCVNGGECFMVKDLSNPSRYLCKCPNEFTGDRCQNYVMASFYKHLGIEFMEAEELYQ
notes: also called Compound 4; VHH-NRG1 fusion
EC50 (ng/mL), PathHunter ErbB4/ErbB4 dimerization assay [1]: 112 ng/mL
Kd [2]: 0.94 nM
koff [2]: 0.00063 s⁻¹
kon [2]: 680000 M⁻¹ s⁻¹
Kd (Cow serum albumin [3]): 100 nM
koff (Cow serum albumin [3]): 0.058 s⁻¹
kon (Cow serum albumin [3]): 570000 M⁻¹ s⁻¹
Kd (Mouse serum albumin [4]): 6.4 nM
koff (Mouse serum albumin [4]): 0.0042 s⁻¹
kon (Mouse serum albumin [4]): 660000 M⁻¹ s⁻¹
Kd (Pig serum albumin [5]): 15 nM
koff (Pig serum albumin [5]): 0.006 s⁻¹
kon (Pig serum albumin [5]): 400000 M⁻¹ s⁻¹
Kd (Human serum albumin [6]): 0.19 nM
koff (Human serum albumin [6]): 0.00019 s⁻¹
kon (Human serum albumin [6]): 1e+06 M⁻¹ s⁻¹
Kd (Dog serum albumin [7]): 2.2 nM
koff (Dog serum albumin [7]): 0.0017 s⁻¹
kon (Dog serum albumin [7]): 780000 M⁻¹ s⁻¹
Kd (Rat serum albumin [8]): 3.1 nM
koff (Rat serum albumin [8]): 0.003 s⁻¹
kon (Rat serum albumin [8]): 970000 M⁻¹ s⁻¹
binding result (Rabbit serum albumin [9]): no binding (tested: up to 1000 nM)

B2: VHH-based fusion of Example 6, VHH fusion 6 (IL2-(G4Q)5-MC6.1C22.43) (other)
chain: APQSSSTQQTQLQLEHLLLDLQMILNGINNYKNPKLTRMLTFKFYMPKKATELKHLQCLEEELKPLEEVLNLAQSKNFHLRPRDLISRINVIVLELKGSETTFMCEYADETATIVEFLNRWITFAQSIISTLTGGGGQGGGGQGGGGQGGGGQGGGGQEVQLLESGGGLVQPGGSLRLSCAASGRYIDETAVAWFRQAPGKEREFVAGIGGGVDITYYADSVKGRFTISRDNSKNTLYLQMNSLRPEDTAVYYCAARPGRPLITSKVADLYPYWGQGTLVTVSSPP
notes: also called Compound 6; IL-2-VHH fusion
binding result (Rabbit serum albumin [10]): no binding (tested: up to 1000 nM)
Kd [11]: 5 nM
koff [11]: 0.00088 s⁻¹
kon [11]: 180000 M⁻¹ s⁻¹
Kd (Cow serum albumin [12]): 380 nM
koff (Cow serum albumin [12]): 0.071 s⁻¹
kon (Cow serum albumin [12]): 190000 M⁻¹ s⁻¹
Kd (Mouse serum albumin [13]): 50 nM
koff (Mouse serum albumin [13]): 0.0087 s⁻¹
kon (Mouse serum albumin [13]): 170000 M⁻¹ s⁻¹
Kd (Pig serum albumin [14]): 100 nM
koff (Pig serum albumin [14]): 0.012 s⁻¹
kon (Pig serum albumin [14]): 120000 M⁻¹ s⁻¹
Kd (Human serum albumin [15]): 1.5 nM
koff (Human serum albumin [15]): 0.00026 s⁻¹
kon (Human serum albumin [15]): 180000 M⁻¹ s⁻¹
Kd (Dog serum albumin [16]): 19 nM
koff (Dog serum albumin [16]): 0.0034 s⁻¹
kon (Dog serum albumin [16]): 170000 M⁻¹ s⁻¹
Kd (Rat serum albumin [17]): 34 nM
koff (Rat serum albumin [17]): 0.0066 s⁻¹
kon (Rat serum albumin [17]): 190000 M⁻¹ s⁻¹
EC50 (nM), PathHunter IL-2 BioAssay [18]: 6.7 nM

B3: VHH-based fusion of Example 5, VHH fusion 5 (MC6.1C22-(G4Q)5-GDF15) (other)
chain: EVQLLESGGGLVQPGGSLRLSCAASGRYIDETAVAWFRQAPGKEREFVAGIGGGVDITYYADSVKGRFTISRDNSKNTLYLQMNSLRPEDTAVYYCAARPGRPLITSKVADLYPYWGQGTLVTVSSGGGGQGGGGQGGGGQGGGGQGGGGQGDHCPLGPGRCCRLHTVRASLEDLGWADWVLSPREVQVTMCIGACPSQFRAANMHAQIKTSLHRLKPDTVPAPCCVPASYNPMVLIQKTDTGVSLQTYDDLLAKDCHCI
notes: also called Compound 5; VHH-GDF15 fusion
hGFRAL/RET EC50 (pM), p-ERK1/2 AlphaLISA [19]: 101 pM
Kd (Cow serum albumin [20]): 28 nM
Kd [21]: 0.45 nM
koff [21]: 0.00034 s⁻¹
kon [21]: 740000 M⁻¹ s⁻¹
Kd (Mouse serum albumin [22]): 0.86 nM
koff (Mouse serum albumin [22]): 0.0012 s⁻¹
kon (Mouse serum albumin [22]): 1.4e+06 M⁻¹ s⁻¹
Kd (Pig serum albumin [23]): 3.3 nM
koff (Pig serum albumin [23]): 0.0028 s⁻¹
kon (Pig serum albumin [23]): 850000 M⁻¹ s⁻¹
Kd (Human serum albumin [24]): 0.2 nM
koff (Human serum albumin [24]): 0.00014 s⁻¹
kon (Human serum albumin [24]): 670000 M⁻¹ s⁻¹
Kd (Dog serum albumin [25]): 0.6 nM
koff (Dog serum albumin [25]): 0.00068 s⁻¹
kon (Dog serum albumin [25]): 1.1e+06 M⁻¹ s⁻¹
Kd (Rat serum albumin [26]): 0.74 nM
koff (Rat serum albumin [26]): 0.00077 s⁻¹
kon (Rat serum albumin [26]): 1e+06 M⁻¹ s⁻¹
binding result (Rabbit serum albumin [27]): no binding (tested: up to 1000 nM)

B4: VHH-based fusion of Example 3, VHH fusion 3 (NRG1-(G4Q)5-MC6.1C22.43) (other)
chain: SHLVKCAEKEKTFCVNGGECFMVKDLSNPSRYLCKCPNEFTGDRCQNYVMASFYKHLGIEFMEAEELYQGGGGQGGGGQGGGGQGGGGQGGGGQEVQLLESGGGLVQPGGSLRLSCAASGRYIDETAVAWFRQAPGKEREFVAGIGGGVDITYYADSVKGRFTISRDNSKNTLYLQMNSLRPEDTAVYYCAARPGRPLITSKVADLYPYWGQGTLVTVSSPP
notes: also called Compound 3; NRG1-VHH fusion
EC50 (ng/mL), PathHunter ErbB4/ErbB4 dimerization assay [1]: 33.5 ng/mL
binding result (Rabbit serum albumin [28]): no binding (tested: up to 1000 nM)
Kd [29]: 6.1 nM
koff [29]: 0.00087 s⁻¹
kon [29]: 140000 M⁻¹ s⁻¹
Kd (Cow serum albumin [30]): 470 nM
koff (Cow serum albumin [30]): 0.072 s⁻¹
kon (Cow serum albumin [30]): 160000 M⁻¹ s⁻¹
Kd (Mouse serum albumin [31]): 62 nM
koff (Mouse serum albumin [31]): 0.0088 s⁻¹
kon (Mouse serum albumin [31]): 140000 M⁻¹ s⁻¹
Kd (Pig serum albumin [32]): 130 nM
koff (Pig serum albumin [32]): 0.012 s⁻¹
kon (Pig serum albumin [32]): 93000 M⁻¹ s⁻¹
Kd (Human serum albumin [33]): 1.9 nM
koff (Human serum albumin [33]): 0.00023 s⁻¹
kon (Human serum albumin [33]): 120000 M⁻¹ s⁻¹
Kd (Dog serum albumin [34]): 19 nM
koff (Dog serum albumin [34]): 0.0032 s⁻¹
kon (Dog serum albumin [34]): 170000 M⁻¹ s⁻¹
Kd (Rat serum albumin [35]): 52 nM
koff (Rat serum albumin [35]): 0.006 s⁻¹
kon (Rat serum albumin [35]): 120000 M⁻¹ s⁻¹
